# From paper PMC9047656 (ACS Nano, 2022)
# B1: canavalin (natural protein, Canavalia ensiformis (jack bean), UniProt P50477 27-445, looked up)
# chain: HSGHSGGEAEDESEESRAQNNPYLFRSNKFLTLFKNQHGSLRLLQRFNEDTEKLENLRDYRVLEYCSKPNTLLLPHHSDSDLLVLVLEGQAILVLVNPDGRDTYKLDQGDAIKIQAGTPFYLINPDNNQNLRILKFAITFRRPGTVEDFFLSSTKRLPSYLSAFSKNFLEASYDSPYDEIEQTLLQEEQEGVIVKMPKDQIQEISKHAQSSSRKTLSSQDKPFNLRSRDPIYSNNYGKLYEITPEKNSQLRDLDILLNCLQMNEGALFVPHYNSRATVILVANEGRAEVELVGLEQQQQQGLESMQLRRYAATLSEGDIIVIPSSFPVALKAASDLNMVGIGVNAENNERNFLAGHKENVIRQIPRQVSDLTFPGSGEEVEELLENQKESYFVDGQPRHIDAGGKARRAHLPNLFRTFY
# Molecular target: the molecule itself
# Assay: SEC-MALS
protein,measurement,value
B1,stoichiometry N,3
